Columns and labels:
[1] = target: TSP-1 protein (novoprotein, Catalog No. CU45), P07996; experiment: competition ELISA, TSP-1 coated, CD36-Fc 0.25 µg/mL as competitor, peptide 100 µM
[2] = target: TSP-1 protein expressed by PMA-differentiated THP-1 macrophage-like cells, P07996; experiment: cell-based or functional assay
[3] = target: TSP-1 protein (novoprotein, Catalog No. CU45), P07996; experiment: competition ELISA, TSP-1 coated, CD36-Fc as competitor, peptide 0-100 µM

Chain of TSP-1 protein (novoprotein, Catalog No. CU45), P07996 (P07996 19-1170 limits assumed): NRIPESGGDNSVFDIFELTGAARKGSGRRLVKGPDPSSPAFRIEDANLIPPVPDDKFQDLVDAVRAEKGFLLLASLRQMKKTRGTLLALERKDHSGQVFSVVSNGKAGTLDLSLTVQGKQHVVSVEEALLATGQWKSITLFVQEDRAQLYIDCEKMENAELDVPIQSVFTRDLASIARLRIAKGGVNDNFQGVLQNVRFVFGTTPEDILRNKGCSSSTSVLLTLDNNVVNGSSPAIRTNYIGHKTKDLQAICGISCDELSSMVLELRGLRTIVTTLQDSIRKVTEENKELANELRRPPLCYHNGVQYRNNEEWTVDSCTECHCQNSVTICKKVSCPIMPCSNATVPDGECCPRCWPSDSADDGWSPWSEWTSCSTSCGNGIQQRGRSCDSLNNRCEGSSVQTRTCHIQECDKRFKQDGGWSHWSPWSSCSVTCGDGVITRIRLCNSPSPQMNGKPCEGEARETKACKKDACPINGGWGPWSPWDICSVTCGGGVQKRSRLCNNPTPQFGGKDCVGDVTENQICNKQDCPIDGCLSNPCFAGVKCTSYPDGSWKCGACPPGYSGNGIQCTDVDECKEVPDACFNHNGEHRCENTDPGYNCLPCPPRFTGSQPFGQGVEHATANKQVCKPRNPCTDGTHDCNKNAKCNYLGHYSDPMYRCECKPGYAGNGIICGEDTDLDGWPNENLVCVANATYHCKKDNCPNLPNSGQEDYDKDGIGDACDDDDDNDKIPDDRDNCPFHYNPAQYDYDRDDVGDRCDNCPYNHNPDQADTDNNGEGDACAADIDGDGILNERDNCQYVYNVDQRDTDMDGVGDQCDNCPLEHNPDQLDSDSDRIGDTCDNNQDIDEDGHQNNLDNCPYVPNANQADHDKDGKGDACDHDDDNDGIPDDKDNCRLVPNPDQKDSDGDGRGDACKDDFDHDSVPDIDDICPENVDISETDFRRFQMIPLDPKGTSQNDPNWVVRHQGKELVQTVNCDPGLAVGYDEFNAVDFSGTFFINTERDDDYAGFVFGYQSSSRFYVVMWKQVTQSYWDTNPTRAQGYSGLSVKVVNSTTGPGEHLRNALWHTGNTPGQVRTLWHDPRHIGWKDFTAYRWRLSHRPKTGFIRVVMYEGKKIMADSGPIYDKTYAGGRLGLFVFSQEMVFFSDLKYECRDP
Chain of TSP-1 protein expressed by PMA-differentiated THP-1 macrophage-like cells, P07996 (P07996 19-1170 limits assumed): as above

Row | Binder | Blocking rate (Mean, %) [1] | Mean (relative fluorescence intensity), 293-TGFβ Res reporter cells (ratio to negative control) [2] | IC50 [3]
1 | TCDAEDNC (modifications not checked) [SEQ ID NO: 43] | 52% | 0.65 | 3.62 µM
2 | TCDAEDNC (modifications not checked) [SEQ ID NO: 44] | 52.9% | 0.43 | 6.71 µM
